Assay results: IntAct's records for PubMed 31515488

B1: Cyclic AMP-dependent transcription factor ATF-4 (Homo sapiens), P18848 (parent)
chain: MTEMSFLSSEVLVGDLMSPFDQSGLGAEESLGLLDDYLEVAKHFKPHGFSSDKAKAGSSEWLAVDGLVSPSNNSKEDAFSGTDWMLEKMDLKEFDLDALLGIDDLETMPDDLLTTLDDTCDLFAPLVQETNKQPPQTVNPIGHLPESLTKPDQVAPFTFLQPLPLSPGVLSSTPDHSFSLELGSEVDITEGDRKPDYTAYVAMIPQCIKEEDTPSDNDSGICMSPESYLGSPQHSPSTRGSPNRSLPSPGVLCGSARPKPYDPPGEKMVAAKVKGEKLDKKLKKMEQNKTAATRYRQKKRAEQEALTGECKELEKKNEALKERADSLAKEIQYLKDLIEEVRKARGKKRVP
B2: Segment polarity protein dishevelled homolog DVL-2 (Homo sapiens), O14641 (parent)
chain: MAGSSTGGGGVGETKVIYHLDEEETPYLVKIPVPAERITLGDFKSVLQRPAGAKYFFKSMDQDFGVVKEEISDDNARLPCFNGRVVSWLVSSDNPQPEMAPPVHEPRAELAPPAPPLPPLPPERTSGIGDSRPPSFHPNVSSSHENLEPETETESVVSLRRERPRRRDSSEHGAGGHRTGGPSRLERHLAGYESSSTLMTSELESTSLGDSDEEDTMSRFSSSTEQSSASRLLKRHRRRRKQRPPRLERTSSFSSVTDSTMSLNIITVTLNMEKYNFLGISIVGQSNERGDGGIYIGSIMKGGAVAADGRIEPGDMLLQVNDMNFENMSNDDAVRVLRDIVHKPGPIVLTVAKCWDPSPQAYFTLPRNEPIQPIDPAAWVSHSAALTGTFPAYPGSSSMSTITSGSSLPDGCEGRGLSVHTDMASVTKAMAAPESGLEVRDRMWLKITIPNAFLGSDVVDWLYHHVEGFPERREARKYASGLLKAGLIRHTVNKITFSEQCYYVFGDLSGGCESYLVNLSLNDNDGSSGASDQDTLAPLPGATPWPLLPTFSYQYPAPHPYSPQPPPYHELSSYTYGGGSASSQHSEGSRSSGSTRSDGGAGRTGRPEERAPESKSGSGSESEPSSRGGSLRRGGEASGTSDGGPPPSRGSTGGAPNLRAHPGLHPYGPPPGMALPYNPMMVVMMPPPPPPVPPAVQPPGAPPVRDLGSVPPELTASRQSFHMAMGNPSEFFVDVM
partner: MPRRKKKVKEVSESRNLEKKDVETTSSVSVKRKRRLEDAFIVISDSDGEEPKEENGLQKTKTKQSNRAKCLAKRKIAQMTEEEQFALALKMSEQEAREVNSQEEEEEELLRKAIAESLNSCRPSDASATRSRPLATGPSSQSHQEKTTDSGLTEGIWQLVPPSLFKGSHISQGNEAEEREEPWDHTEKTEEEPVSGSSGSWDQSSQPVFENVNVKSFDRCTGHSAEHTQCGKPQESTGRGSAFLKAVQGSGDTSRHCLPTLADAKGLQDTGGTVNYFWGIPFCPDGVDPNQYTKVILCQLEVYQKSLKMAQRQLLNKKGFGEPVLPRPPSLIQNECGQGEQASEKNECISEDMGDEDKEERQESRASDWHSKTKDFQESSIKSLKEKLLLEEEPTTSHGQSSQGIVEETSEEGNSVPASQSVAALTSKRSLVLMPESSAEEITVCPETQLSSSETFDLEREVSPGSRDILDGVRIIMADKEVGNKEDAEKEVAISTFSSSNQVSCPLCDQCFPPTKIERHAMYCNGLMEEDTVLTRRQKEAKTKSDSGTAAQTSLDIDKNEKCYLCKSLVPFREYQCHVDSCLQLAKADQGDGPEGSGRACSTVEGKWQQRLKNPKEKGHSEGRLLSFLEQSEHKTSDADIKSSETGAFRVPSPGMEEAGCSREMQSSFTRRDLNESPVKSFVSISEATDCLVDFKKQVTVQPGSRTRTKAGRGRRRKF
B3: Peroxisomal biogenesis factor 3 (Homo sapiens), P56589 (parent)
chain: MLRSVWNFLKRHKKKCIFLGTVLGGVYILGKYGQKKIREIQEREAAEYIAQARRQYHFESNQRTCNMTVLSMLPTLREALMQQLNSESLTALLKNRPSNKLEIWEDLKIISFTRSTVAVYSTCMLVVLLRVQLNIIGGYIYLDNAAVGKNGTTILAPPDVQQQYLSSIQHLLGDGLTELITVIKQAVQKVLGSVSLKHSLSLLDLEQKLKEIRNLVEQHKSSSWINKDGSKPLLCHYMMPDEETPLAVQACGLSPRDITTIKLLNETRDMLESPDFSTVLNTCLNRGFSRLLDNMAEFFRPTEQDLQHGNSMNSLSSVSLPLAKIIPIVNGQIHSVCSETPSHFVQDLLTMEQVKDFAANVYEAFSTPQQLEK
partner: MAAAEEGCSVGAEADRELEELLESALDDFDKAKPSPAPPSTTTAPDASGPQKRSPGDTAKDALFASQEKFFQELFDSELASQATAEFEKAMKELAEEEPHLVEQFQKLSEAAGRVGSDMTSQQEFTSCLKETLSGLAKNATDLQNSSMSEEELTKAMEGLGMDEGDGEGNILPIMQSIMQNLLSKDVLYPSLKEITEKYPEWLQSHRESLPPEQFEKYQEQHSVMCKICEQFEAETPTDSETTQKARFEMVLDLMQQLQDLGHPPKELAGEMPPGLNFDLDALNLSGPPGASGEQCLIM
B4: Ras and Rab interactor 1 (Homo sapiens), Q13671 (parent)
chain: MESPGESGAGSPGAPSPSSFTTGHLAREKPAQDPLYDVPNASGGQAGGPQRPGRVVSLRERLLLTRPVWLQLQANAAAALHMLRTEPPGTFLVRKSNTRQCQALCMRLPEASGPSFVSSHYILESPGGVSLEGSELMFPDLVQLICAYCHTRDILLLPLQLPRAIHHAATHKELEAISHLGIEFWSSSLNIKAQRGPAGGPVLPQLKARSPQELDQGTGAALCFFNPLFPGDLGPTKREKFKRSFKVRVSTETSSPLSPPAVPPPPVPVLPGAVPSQTERLPPCQLLRRESSVGYRVPAGSGPSLPPMPSLQEVDCGSPSSSEEEGVPGSRGSPATSPHLGRRRPLLRSMSAAFCSLLAPERQVGRAAAALMQDRHTAAGQLVQDLLTQVRAGPEPQELQGIRQALSRARAMLSAELGPEKLLSPKRLEHVLEKSLHCSVLKPLRPILAARLRRRLAADGSLGRLAEGLRLARAQGPGAFGSHLSLPSPVELEQVRQKLLQLLRTYSPSAQVKRLLQACKLLYMALRTQEGEGAGADEFLPLLSLVLAHCDLPELLLEAEYMSELLEPSLLTGEGGYYLTSLSASLALLSGLGQAHTLPLSPVQELRRSLSLWEQRRLPATHCFQHLLRVAYQDPSSGCTSKTLAVPPEASIATLNQLCATKFRVTQPNTFGLFLYKEQGYHRLPPGALAHRLPTTGYLVYRRAEWPETQGAVTEEEGSGQSEARSRGEEQGCQGDGDAGVKASPRDIREQSETTAEGGQGQAQEGPAQPGEPEAEGSRAAEE
partner: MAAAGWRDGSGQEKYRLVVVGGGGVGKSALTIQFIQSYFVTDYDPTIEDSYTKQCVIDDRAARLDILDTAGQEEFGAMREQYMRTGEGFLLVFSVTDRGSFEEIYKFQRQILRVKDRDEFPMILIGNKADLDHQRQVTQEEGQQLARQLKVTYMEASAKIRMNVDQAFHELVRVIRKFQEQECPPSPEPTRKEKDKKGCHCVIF
B5: Scaffold protein ILK (Homo sapiens), Q13418 (parent)
chain: MDDIFTQCREGNAVAVRLWLDNTENDLNQGDDHGFSPLHWACREGRSAVVEMLIMRGARINVMNRGDDTPLHLAASHGHRDIVQKLLQYKADINAVNEHGNVPLHYACFWGQDQVAEDLVANGALVSICNKYGEMPVDKAKAPLRELLRERAEKMGQNLNRIPYKDTFWKGTTRTRPRNGTLNKHSGIDFKQLNFLTKLNENHSGELWKGRWQGNDIVVKVLKVRDWSTRKSRDFNEECPRLRIFSHPNVLPVLGACQSPPAPHPTLITHWMPYGSLYNVLHEGTNFVVDQSQAVKFALDMARGMAFLHTLEPLIPRHALNSRSVMIDEDMTARISMADVKFSFQCPGRMYAPAWVAPEALQKKPEDTNRRSADMWSFAVLLWELVTREVPFADLSNMEIGMKVALEGLRPTIPPGISPHVCKLMKICMNEDPAKRPKFDMIVPILEKMQDK
partner: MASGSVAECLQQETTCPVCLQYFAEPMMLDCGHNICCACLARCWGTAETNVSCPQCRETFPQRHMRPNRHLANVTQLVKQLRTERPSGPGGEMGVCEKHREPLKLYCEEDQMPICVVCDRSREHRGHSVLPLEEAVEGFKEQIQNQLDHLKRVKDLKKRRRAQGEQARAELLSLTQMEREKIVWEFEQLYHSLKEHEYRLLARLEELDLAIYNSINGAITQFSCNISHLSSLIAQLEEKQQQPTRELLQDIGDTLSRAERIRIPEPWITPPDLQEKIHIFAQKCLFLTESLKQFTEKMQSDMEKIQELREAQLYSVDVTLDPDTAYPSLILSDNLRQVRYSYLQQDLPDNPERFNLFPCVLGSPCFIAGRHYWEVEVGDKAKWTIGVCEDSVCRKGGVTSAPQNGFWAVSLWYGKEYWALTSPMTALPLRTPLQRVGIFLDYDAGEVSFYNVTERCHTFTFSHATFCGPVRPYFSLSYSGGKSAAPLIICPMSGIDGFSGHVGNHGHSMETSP
B6: Tetratricopeptide repeat protein 5 (Homo sapiens), Q8N0Z6 (parent)
chain: MMADEEEEVKPILQKLQELVDQLYSFRDCYFETHSVEDAGRKQQDVQKEMEKTLQQMEEVVGSVQGKAQVLMLTGKALNVTPDYSPKAEELLSKAVKLEPELVEAWNQLGEVYWKKGDVAAAHTCFSGALTHCRNKVSLQNLSMVLRQLRTDTEDEHSHHVMDSVRQAKLAVQMDVHDGRSWYILGNSYLSLYFSTGQNPKISQQALSAYAQAEKVDRKASSNPDLHLNRATLHKYEESYGEALEGFSRAAALDPAWPEPRQREQQLLEFLDRLTSLLESKGKVKTKKLQSMLGSLRPAHLGPCSDGHYQSASGQKVTLELKPLSTLQPGVNSGAVILGKVVFSLTTEEKVPFTFGLVDSDGPCYAVMVYNIVQSWGVLIGDSVAIPEPNLRLHRIQHKGKDYSFSSVRVETPLLLVVNGKPQGSSSQAVATVASRPQCE

Variants of: B1
Settings: with ldoc1_human LDOC1, O95751
ldoc1_human LDOC1, O95751, sequence (O95751 whole entry): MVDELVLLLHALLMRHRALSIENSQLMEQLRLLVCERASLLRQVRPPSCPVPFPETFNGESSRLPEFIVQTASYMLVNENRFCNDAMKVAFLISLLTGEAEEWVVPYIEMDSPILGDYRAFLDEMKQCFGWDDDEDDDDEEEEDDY

Variant | effect of a mutation on the interaction
E322D | disrupting interaction strength
P258A | with no effect

Variants of: B1
Settings: with cc106_human CCDC106, Q9BWC9
cc106_human CCDC106, Q9BWC9, sequence (Q9BWC9 whole entry): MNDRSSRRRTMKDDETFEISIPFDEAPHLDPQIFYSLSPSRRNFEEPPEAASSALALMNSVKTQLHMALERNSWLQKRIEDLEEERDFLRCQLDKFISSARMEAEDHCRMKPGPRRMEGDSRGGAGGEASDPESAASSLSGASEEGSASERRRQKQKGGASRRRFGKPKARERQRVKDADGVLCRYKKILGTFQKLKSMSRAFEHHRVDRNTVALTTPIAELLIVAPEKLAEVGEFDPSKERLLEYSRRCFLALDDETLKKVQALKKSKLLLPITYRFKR

Variant | effect of a mutation on the interaction
E322D | disrupting interaction strength
P258A | with no effect

Variants of: B1
Settings: with fbw1a_human BTRC

Variant | effect of a mutation on the interaction
E322D | disrupting interaction strength
P258A | with no effect

Variants of: B2
Settings: with uimc1_human UIMC1, Q96RL1

Variant | effect of a mutation on the interaction
R415Q | with no effect

Variants of: B3
Settings: with pex19_human PEX19, P40855

Variant | effect of a mutation on the interaction
Q82R | with no effect
D347Y | with no effect

Variants of: B4
Settings: with rras2_human RRAS2, P62070

Variant | effect of a mutation on the interaction
R238Q | with no effect

Variants of: B5
Settings: with tri27_human TRIM27, P14373

Variant | effect of a mutation on the interaction
V340G | with no effect

Variants of: B6
Settings: with kcc2d_human CAMK2D

Variant | effect of a mutation on the interaction
G424V | with no effect
